Assay results from PMC3708937, “Function of FlhB, a Membrane Protein Implicated in the Bacterial Flagellar Type III Secretion System” (PLoS ONE, 2013).

T1: Aquifex FlhBC (C-terminal cytoplasmic domain of Aquifex aeolicus FlhB) (Aquifex aeolicus, UniProt O67813 213-350)
T1 construct: FlhB of Aquifex aeolicus, cytoplasmic domain FlhBC; also called AquFlhBC; source: purified as described previously [14]
T1 sequence (looked up): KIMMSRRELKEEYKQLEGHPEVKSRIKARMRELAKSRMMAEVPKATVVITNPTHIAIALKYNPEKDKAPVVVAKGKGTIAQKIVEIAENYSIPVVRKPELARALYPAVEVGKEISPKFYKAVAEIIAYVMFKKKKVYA


Tests used:
[1] = molecular target: T2, Salmonella FliC (flagellin) (Salmonella enterica serovar Typhimurium, UniProt P06179 1-495); assay: SPR; Biacore T100; AquFlhBC or FliC amine-coupled to a CM5 chip; FliS or FliS A22T flowed at 30 µl/min for 12 min; 10 mM HEPES pH 7.4, 150 mM NaCl, 0.05% (v/v) Surfactant P20; 25°C; steady-state analysis, 1:1 binding model; conditions: both partners purified
T2 construct: FliC (flagellin), major component of the flagellar filament, Salmonella enterica serovar Typhimurium

[2] = molecular target: T1, Aquifex FlhBC (C-terminal cytoplasmic …); assay: as above; conditions: both partners purified

T2 sequence (P06179 whole entry): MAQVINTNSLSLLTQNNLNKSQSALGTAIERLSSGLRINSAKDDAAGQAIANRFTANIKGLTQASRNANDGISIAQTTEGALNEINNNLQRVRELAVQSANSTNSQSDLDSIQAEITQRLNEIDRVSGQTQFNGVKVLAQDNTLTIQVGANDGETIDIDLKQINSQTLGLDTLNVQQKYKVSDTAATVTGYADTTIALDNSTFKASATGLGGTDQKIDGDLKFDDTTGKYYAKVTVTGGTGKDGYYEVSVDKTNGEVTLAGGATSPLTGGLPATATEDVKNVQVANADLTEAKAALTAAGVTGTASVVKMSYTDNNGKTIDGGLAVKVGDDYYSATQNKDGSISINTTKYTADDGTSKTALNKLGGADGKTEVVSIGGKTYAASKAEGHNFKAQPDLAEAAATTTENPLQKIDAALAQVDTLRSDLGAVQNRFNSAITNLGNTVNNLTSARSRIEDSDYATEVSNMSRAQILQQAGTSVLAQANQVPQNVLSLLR

Binder | Kd [1] | Kd [2]
Salmonella FliS (wild type) (natural protein, FliS, flagellin-specific chaperone of Salmonella enterica serovar Typhimurium; also called wild-type FliS) MYTASGIKAYAQVSVESAVMSASPHQLIEMLFDGANSALVRARLFLEQGDVVAKGEALSKAINIIDNGLKAGLDQEKGGEIATNLSELYDYMIRRLLQANLRNDAQAIEEVEGLLSNIAEAWKQISPKASFQESR | 0.7 µM | 169 µM
Salmonella FliS A22T (natural protein, FliS of Salmonella enterica serovar Typhimurium with the point mutation A22T; The mutation arose as a spontaneous extragenic suppressor in the laboratory strain CB351; expression and purification of the protein are not described; also called FliS mutant A22T; fliS22264(A22T)) MYTASGIKAYAQVSVESAVMSTSPHQLIEMLFDGANSALVRARLFLEQGDVVAKGEALSKAINIIDNGLKAGLDQEKGGEIATNLSELYDYMIRRLLQANLRNDAQAIEEVEGLLSNIAEAWKQISPKASFQESR | 11.9 µM | 304 µM
